Assay results taken from PMC12226364.

Target: GST-EPAC1 (purified recombinant)

- shift of the AC50 of cAMP for EPAC1 GEF activity by RanBP2 ZFD (cAMP titration); maximal GEF activity also reduced: 10 fold
Substance: RanBP2 zinc finger domain (ZFD), 1171-1809 aa (from UniProt P49792 1171-1809) (domain or fragment)
